Measurements reported in the supplement of paper PMC10724198.
± gives the standard deviation of the averaged measurements.

test system: Saccharomyces cerevisiae; assay: protein stability index of tFT-peptide fusion (C-terminal peptide) (PSI (0-1 scale)); higher = more stable (slower turnover); details: genetic background: doa10 deletion; temperature: 30 C
Description: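 MPS profiling in S. cerevisiae of the tFT-X12 degron library: putative degron peptides plus stable controls, 12 aa, fused to the C-terminus of a sfGFP-mCherry timer. Cells are FACS-sorted into 8 mCherry/sfGFP bins and deep-sequenced. PSI runs from 0 (unstable) to 1 (stable). Backgrounds are wild type, das1Δ and doa10Δ at 30 °C, and wild type, das1Δ, cdc34-1 and cdc53-1 at 37 °C; 2-3 technical replicates each.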
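Further: PSI is a weighted mean of sequencing reads over stability bins, variants kept only with over 10 reads, mCherry proximal and sfGFP distal, peptide attached via GGGS linker.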

Compared with CKGPPVKFIVLM, CKYCKCVVLLWS is higher in protein stability index: 0.135 ± 0.0034 for the first, 0.2932 ± 0.0013 for the second.

First: CLFFLVYELSIL
Second: CLQYRACLILLT
The protein stability index of the first is lower: 0.2162 ± 0.00051 for the first, 0.456 ± 0.0093 for the second.

Compared with CLSGPFRSLAVF, CMILVACFYLPS is lower in protein stability index: 0.341 ± 0.009 for the first, 0.248 ± 0.0063 for the second.

First: CMYTILRHKINN
Second: CPVSRHLLVLYW
The protein stability index of the first is lower: 0.129 ± 0.036 for the first, 0.402 ± 0.017 for the second.

Going from CQVSEWIRYRFL to CRAAMYSFFLNF, the protein stability index falls from 0.247 ± 0.0032 to 0.236 ± 0.0046.

FFSFLFLLLFGA and FPPCSFLGFLVF are within error of each other in protein stability index: 0.555 ± 0.016 for the first, 0.556 ± 0.018 for the second.

GAVGRWGWVSFV and GFTIFFFFFFFV are within error of each other in protein stability index: 0.337 ± 0.0076 for the first, 0.287 ± 0.056 for the second.

Compared with GPPPPPSLLLLC, GVAVVWVGLGVT is higher in protein stability index: 0.201 ± 0.0072 for the first, 0.227 ± 0.013 for the second.

Compared with LDVGGRRGGEHC, LFVLVLLCWMLT is lower in protein stability index: 0.583 ± 0.092 for the first, 0.357 ± 0.012 for the second.

Going from LWGVGFLFVLVG to PHSMRTTTIMCS, the protein stability index rises from 0.105 ± 0.0094 to 0.214 ± 0.0032.

RPPPAANFTRSS and YGETRGGGRGRW are within error of each other in protein stability index: 0.665 ± 0.018 for the first, 0.563 ± 0.13 for the second.

With YVFSPLSCWASV the protein stability index was 0.603 ± 0.037.

same assay, conditions: genetic background: wild type; temperature: 30 C

Going from ACGGGSNVHRAG to ACVRLVLCVCRV, the protein stability index falls from 0.66 ± 0.018 to 0.225 ± 0.028.

Going from ACVWVVALVWVF to AEVLCEIVIALR, the protein stability index rises from 0.153 ± 0.01 to 0.48 ± 0.038.

First: AFFFCVVVLFSF
Second: AFFRCKCYVGTP
The protein stability index of the first is lower: 0.176 ± 0.041 for the first, 0.495 ± 0.0099 for the second.

Compared with AFTFLLCWLFGV, AFVALCACVIFV is lower in protein stability index: 0.454 ± 0.016 for the first, 0.202 ± 0.026 for the second.

Going from AGGVNWWSSWRV to AGMLMCLYLFFV, the protein stability index falls from 0.669 ± 0.014 to 0.449 ± 0.028.

Compared with AIMFLVLGYVFF, ALCPPLPMLVVA is lower in protein stability index: 0.276 ± 0.027 for the first, 0.137 ± 0.03 for the second.

ALLMVCFGFSLV and ALNFFSLFMLFR are within error of each other in protein stability index: 0.367 ± 0.02 for the first, 0.325 ± 0.034 for the second.

Going from ALSRFFSVFLLV to ASVCLNVIYQLV, the protein stability index falls from 0.266 ± 0.03 to 0.164 ± 0.018.

Going from AVLFAPPLSSNF to AVSFVTLSIMVM, the protein stability index falls from 0.6489 ± 0.0039 to 0.157 ± 0.018.

First: AWVEVYVISIGV
Second: CAGLLSVSFWLF
The protein stability index of the first is lower: 0.153 ± 0.011 for the first, 0.381 ± 0.017 for the second.

Going from CFATTCLRCKWV to CFCVSVHVWLLM, the protein stability index falls from 0.459 ± 0.022 to 0.069 ± 0.018.

Going from CFFLLLRVSLFP to CFSLLFYTLSLL, the protein stability index rises from 0.145 ± 0.025 to 0.274 ± 0.021.

Going from CFVICVCLCFGR to CGSLDLPHQCLL, the protein stability index rises from 0.21 ± 0.026 to 0.693 ± 0.01.

Going from CICAFCSLNLLC to CIHMNCSMMIIS, the protein stability index falls from 0.324 ± 0.023 to 0.132 ± 0.036.

Compared with CKGPPVKFIVLM, CKYCKCVVLLWS is higher in protein stability index: 0.147 ± 0.028 for the first, 0.334 ± 0.034 for the second.

Going from CLFFLVYELSIL to CLQYRACLILLT, the protein stability index rises from 0.246 ± 0.0069 to 0.343 ± 0.015.

Going from CLSGPFRSLAVF to CMILVACFYLPS, the protein stability index falls from 0.365 ± 0.023 to 0.294 ± 0.017.

Going from CMYTILRHKINN to CPVSRHLLVLYW, the protein stability index rises from 0.147 ± 0.058 to 0.331 ± 0.019.

Compared with CQVSEWIRYRFL, CRAAMYSFFLNF is higher in protein stability index: 0.252 ± 0.0098 for the first, 0.299 ± 0.0089 for the second.

FFSFLFLLLFGA and FPPCSFLGFLVF are within error of each other in protein stability index: 0.5673 ± 0.0056 for the first, 0.556 ± 0.014 for the second.

Compared with GAVGRWGWVSFV, GFTIFFFFFFFV is lower in protein stability index: 0.357 ± 0.025 for the first, 0.165 ± 0.0033 for the second.

Compared with GPPPPPSLLLLC, GVAVVWVGLGVT is higher in protein stability index: 0.211 ± 0.015 for the first, 0.262 ± 0.017 for the second.

Going from LDVGGRRGGEHC to LFVLVLLCWMLT, the protein stability index falls from 0.594 ± 0.077 to 0.34 ± 0.013.

Compared with LWGVGFLFVLVG, PHSMRTTTIMCS is higher in protein stability index: 0.131 ± 0.017 for the first, 0.243 ± 0.056 for the second.

RPPPAANFTRSS and YGETRGGGRGRW are within error of each other in protein stability index: 0.661 ± 0.0078 for the first, 0.538 ± 0.12 for the second.

YVFSPLSCWASV gave a protein stability index of 0.596 ± 0.017.

same assay, conditions: genetic background: wild type; temperature: 37 C

Compared with ACGGGSNVHRAG, ACVRLVLCVCRV is lower in protein stability index: 0.75211 ± 0.00044 for the first, 0.375 ± 0.02 for the second.

Going from ACVWVVALVWVF to AEVLCEIVIALR, the protein stability index rises from 0.243 ± 0.009 to 0.543 ± 0.018.

Compared with AFFFCVVVLFSF, AFFRCKCYVGTP is higher in protein stability index: 0.256 ± 0.054 for the first, 0.561 ± 0.025 for the second.

First: AFTFLLCWLFGV
Second: AFVALCACVIFV
The protein stability index of the first is higher: 0.585 ± 0.041 for the first, 0.302 ± 0.0078 for the second.

First: AGGVNWWSSWRV
Second: AGMLMCLYLFFV
The protein stability index of the first is higher: 0.78 ± 0.037 for the first, 0.5673 ± 0.0029 for the second.

Going from AIMFLVLGYVFF to ALCPPLPMLVVA, the protein stability index falls from 0.452 ± 0.019 to 0.0758 ± 0.0021.

Going from ALLMVCFGFSLV to ALNFFSLFMLFR, the protein stability index falls from 0.508 ± 0.0078 to 0.358 ± 0.022.

Going from ALSRFFSVFLLV to ASVCLNVIYQLV, the protein stability index falls from 0.454 ± 0.032 to 0.222 ± 0.024.

Going from AVLFAPPLSSNF to AVSFVTLSIMVM, the protein stability index falls from 0.739 ± 0.0078 to 0.1217 ± 0.0011.

Going from AWVEVYVISIGV to CAGLLSVSFWLF, the protein stability index rises from 0.2966 ± 0.0016 to 0.552 ± 0.0056.

Going from CFATTCLRCKWV to CFCVSVHVWLLM, the protein stability index falls from 0.631 ± 0.027 to 0.105 ± 0.017.

Compared with CFFLLLRVSLFP, CFSLLFYTLSLL is higher in protein stability index: 0.218 ± 0.011 for the first, 0.409 ± 0.0057 for the second.

Compared with CFVICVCLCFGR, CGSLDLPHQCLL is higher in protein stability index: 0.371 ± 0.0092 for the first, 0.774 ± 0.0033 for the second.

First: CICAFCSLNLLC
Second: CIHMNCSMMIIS
The protein stability index of the first is higher: 0.607 ± 0.013 for the first, 0.0482 ± 0.035 for the second.

Going from CKGPPVKFIVLM to CKYCKCVVLLWS, the protein stability index rises from 0.243 ± 0.023 to 0.536 ± 0.01.

Going from CLFFLVYELSIL to CLQYRACLILLT, the protein stability index rises from 0.387 ± 0.0045 to 0.425 ± 0.0086.

Compared with CLSGPFRSLAVF, CMILVACFYLPS is lower in protein stability index: 0.5263 ± 0.0018 for the first, 0.428 ± 0.01 for the second.

Compared with CMYTILRHKINN, CPVSRHLLVLYW is higher in protein stability index: 0.279 ± 0.029 for the first, 0.47 ± 0.012 for the second.

First: CQVSEWIRYRFL
Second: CRAAMYSFFLNF
The protein stability index of the first is lower: 0.386 ± 0.016 for the first, 0.529 ± 0.022 for the second.

FFSFLFLLLFGA and FPPCSFLGFLVF are within error of each other in protein stability index: 0.617 ± 0.046 for the first, 0.688 ± 0.034 for the second.

First: GAVGRWGWVSFV
Second: GFTIFFFFFFFV
The protein stability index of the first is higher: 0.638 ± 0.052 for the first, 0.264 ± 0.0077 for the second.
